# Patent US20080181886A1 (Genentech, published 2008)
# Experiments:
# Murine APRIL [1] = target: T1, Murine APRIL (mouse, UniProt Q9D777 105-241, limits assumed); assay: shotgun scan, phage display
# T1 sequence (looked up): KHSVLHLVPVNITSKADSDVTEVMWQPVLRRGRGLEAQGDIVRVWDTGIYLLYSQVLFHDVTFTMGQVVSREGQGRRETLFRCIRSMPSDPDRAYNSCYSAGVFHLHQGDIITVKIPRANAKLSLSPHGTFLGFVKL
# Source text: Phage from each of the libraries described above were subjected to rounds of binding selection against APRIL, BAFF, or anti-tag antibody (3C8:2F4 Genentech, Inc.) immobilized on 96-well Nunc Maxisorp immunoplates (Sidhu, 2001). BSA-coated wells were used to determine non-specific background binding. Phage eluted from each target were propagated in E. coli XL1-Blue in the presence of M13K07 helper phage; amplified phage were used for selection against the same target in the […] round. […] Enrichment was calculated from the ratio of the phage titer eluted from the target-coated wells to the phage titer eluted from the BSA-coated wells. Individual clones from each library and selection target were then grown in a 96-well format in 400 ul of 2YT medium supplemented with carbenicillin and KO7 helper phage. […] Sequences of acceptable quality were translated and aligned. For APRIL-binding, 71, 40, and 54 sequences were analyzed from libraries one, two and three, respectively. For BAFF-binding, 70, 50, and 53 sequences were analyzed for libraries one, two and three, respectively. For the display selection, a minimum of 47 sequences were analyzed for each library. […] F values describe the effect of mutation on target binding, while accounting for differences in display efficiencies, with values >1 representing deleterious mutations and those <1 representing favorable mutations.
# human BAFF = human BAFF (human, UniProt Q9Y275 82-285, limits assumed); assay: NNS library, phage display;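 further: ligand versus display occurrence-to-degeneracy ratio and higher means enriched by binding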
# human BAFF, sequence (Q9Y275 82-285 limits assumed): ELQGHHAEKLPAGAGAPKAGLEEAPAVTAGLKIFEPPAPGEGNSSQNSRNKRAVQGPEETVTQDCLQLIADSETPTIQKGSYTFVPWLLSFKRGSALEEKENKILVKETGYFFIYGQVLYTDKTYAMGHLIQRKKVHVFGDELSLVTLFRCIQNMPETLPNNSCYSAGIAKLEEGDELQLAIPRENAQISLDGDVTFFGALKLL
# Protocol: (§1) This new phage library was subjected to sorting against either BAFF, APRIL or the display target antibody. After 3 rounds of sorting, approximately 48 clones were picked from each selection and the DNA sequences of the phage clones were determined. […] The normalized F′ value corrects for display bias and is calculated as the percent occurrence to percent degeneracy ratio for ligand selection divided by the percent occurrence to percent degeneracy ratio for display efficiency. Percent occurrence is calculated by dividing the number of times a particular amino acid appeared at a particular position by the total number of amino acids sequenced at that position followed by multiplying by 100. Percent degeneracy is calculated by dividing the degeneracy in code for a particular amino acid divided by the total degeneracy possible at that position followed by multiplying by 100 (e.g., if only A, G and I were selected, total degeneracy possible would be 5).
# Murine APRIL [2] = target: T1, Murine APRIL; assay: NNS library, phage display;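 further: ligand versus display occurrence-to-degeneracy ratio and higher means enriched by binding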
# Protocol: as §1
Binder,F (APRIL) (Murine APRIL [1]),F' BAFF (human BAFF),F' APRIL (Murine APRIL [2])
"SLSCRKEQGKFYDHLLRDCISCASICGQHPKQCAYFCANKLR (receptor, phage library variant, format as m9) [TACI_d2 E105A]",1.7,,
"SLSCRKEQGKFYDHLLRDCISCASICGPHPKQCAYFCENKLR (receptor, phage library variant, format as m9) [TACI_d2 Q95P]",> 39,,
"SLSCRKEQGKFYDHLARDCISCASICGQHPKQCAYFCENKLR (receptor, phage library variant, format as m9) [TACI_d2 L83A]",31,,
"SLSCRKEQGKFYDHLLRDCISCASICGQHPKQCAYFCEDKLR (receptor, phage library variant, format as m9) [TACI_d2 N106D]",1.2,,
"SLSCRKEQGKFYDHLPRDCISCASICGQHPKQCAYFCENKLR (receptor, phage library variant, format as m9) [TACI_d2 L83P]",> 20,,
"SLSCRKEQGKDYDHLLRDCISCASICGQHPKQCAYFCENKLR (receptor, phage library variant, format as m9) [TACI_d2 F78D]",,0,0
"SLSCRKEQGKQYDHLLRDCISCASICGQHPKQCAYFCENKLR (receptor, phage library variant, format as m9) [TACI_d2 F78Q]",,0,0
"SLSCRKEQGKFYDHLLRDCISCAAICGQHPKQCAYFCENKLR (receptor, phage library variant, format as m9) [TACI_d2 S91A]",2.1,,
"SLSCRKEQGKFYDHLLRDCISCASICGQHPAQCAYFCENKLR (receptor, phage library variant, format as m9) [TACI_d2 K98A]",3.5,,
"SLSCRKEQGKFYDHLLRDCISCASICGQHPKQCAYFCENKPR (receptor, phage library variant, format as m9) [TACI_d2 L108P]",1.4,,
"SLSCRKEQGKFYDHLLPDCISCASICGQHPKQCAYFCENKLR (receptor, phage library variant, format as m9) [TACI_d2 R84P]",> 22,,0
"SLSCRKEQGKFYDHLLRDCISCASICGQHAKQCAYFCENKLR (receptor, phage library variant, format as m9) [TACI_d2 P97A]",> 20,,
"SLSCRKEQGKCYDHLLRDCISCASICGQHPKQCAYFCENKLR (receptor, phage library variant, format as m9) [TACI_d2 F78C]",,0,0
"SLSCRKEQGKIYDHLLRDCISCASICGQHPKQCAYFCENKLR (receptor, phage library variant, format as m9) [TACI_d2 F78I]",,10,7
"SLSCRKEQGKFYDHLLRDCISCASICGAHPKQCAYFCENKLR (receptor, phage library variant, format as m9) [TACI_d2 Q95A]",6.6,,
"SLSCRKEQGKFYDHLLGDCISCASICGQHPKQCAYFCENKLR (receptor, phage library variant, format as m9) [TACI_d2 R84G]",1.8,,1
"SLSCRKEQAKFYDHLLRDCISCASICGQHPKQCAYFCENKLR (receptor, phage library variant, format as m9) [TACI_d2 G76A]",1.6,,
"SLSCRKEQGKFYDALLRDCISCASICGQHPKQCAYFCENKLR (receptor, phage library variant, format as m9) [TACI_d2 H81A]",2,,
"SLSCRKEQGKFYDHLLRDCISCASICGQHPKQCAYFCENELR (receptor, phage library variant, format as m9) [TACI_d2 K107E]",2.1,,
"SLSCRKEQGKLYDHLLRDCISCASICGQHPKQCAYFCENKLR (receptor, phage library variant, format as m9) [TACI_d2 F78L]",,0,0

Binder,F (APRIL) (Murine APRIL [1]),F' BAFF (human BAFF),F' APRIL (Murine APRIL [2])
"SLSCRKEQGKFYDHLLRDCISCASICGQHPKQCAYSCENKLR (receptor, phage library variant, format as m9) [TACI_d2 F103S]",5.8,,
"SLSCRKEQGKGYDHLLRDCISCASICGQHPKQCAYFCENKLR (receptor, phage library variant, format as m9) [TACI_d2 F78G]",,0,0
"SLSCRKEQGKFYDHLLRDCISCASICGQAPKQCAYFCENKLR (receptor, phage library variant, format as m9) [TACI_d2 H96A]",12,,
"SLSCRKEQGKNYDHLLRDCISCASICGQHPKQCAYFCENKLR (receptor, phage library variant, format as m9) [TACI_d2 F78N]",,0,0
"SLSCRKEQGKFYDHLLRDCIACASICGQHPKQCAYFCENKLR (receptor, phage library variant, format as m9) [TACI_d2 S88A]",3.8,,
"SLSCRKEQGKRYDHLLRDCISCASICGQHPKQCAYFCENKLR (receptor, phage library variant, format as m9) [TACI_d2 F78R]",,0,0
"SLSCRKEQGKFYDHLLRDCISCASICGEHPKQCAYFCENKLR (receptor, phage library variant, format as m9) [TACI_d2 Q95E]",21,,
"SLSCRKEQGKFYDHLLRDCISCASICGQDPKQCAYFCENKLR (receptor, phage library variant, format as m9) [TACI_d2 H96D]",> 24,,
"SLSCRKEQGKKYDHLLRDCISCASICGQHPKQCAYFCENKLR (receptor, phage library variant, format as m9) [TACI_d2 F78K]",,0,0
"SLSCRKEQGAFYDHLLRDCISCASICGQHPKQCAYFCENKLR (receptor, phage library variant, format as m9) [TACI_d2 K77A]",1,,
"SLSCRKEQGKFYDHLLRDCISCASICGQHPKACAYFCENKLR (receptor, phage library variant, format as m9) [TACI_d2 Q99A]",1.9,,
"SLSCRKEQGKFYDHLLRDCISCASICGQHPEQCAYFCENKLR (receptor, phage library variant, format as m9) [TACI_d2 K98E]",6.9,,
"SLSCREEQGKFYDHLLRDCISCASICGQHPKQCAYFCENKLR (receptor, phage library variant, format as m9) [TACI_d2 K73E]",7.7,,
"SLSCRKEQGKEYDHLLRDCISCASICGQHPKQCAYFCENKLR (receptor, phage library variant, format as m9) [TACI_d2 F78E]",,5,0
"SLSCRKEQGKFYDDLLRDCISCASICGQHPKQCAYFCENKLR (receptor, phage library variant, format as m9) [TACI_d2 H81D]",0.9,,
"SLSCRKEQGKHYDHLLRDCISCASICGQHPKQCAYFCENKLR (receptor, phage library variant, format as m9) [TACI_d2 F78H]",,0,0
"SLSCRKEQGKPYDHLLRDCISCASICGQHPKQCAYFCENKLR (receptor, phage library variant, format as m9) [TACI_d2 F78P]",,0,0
"SLSCRKEQGKFSDHLLRDCISCASICGQHPKQCAYFCENKLR (receptor, phage library variant, format as m9) [TACI_d2 Y79S]",31,,0
"SLSCRKEQGKFYDHLLRDCISCASICGQHPKQCASFCENKLR (receptor, phage library variant, format as m9) [TACI_d2 Y102S]",1.5,,
"SLSCRKEQGKMYDHLLRDCISCASICGQHPKQCAYFCENKLR (receptor, phage library variant, format as m9) [TACI_d2 F78M]",,1,0
